In PMC9637814, “Aurora A–mediated pyruvate kinase M2 phosphorylation promotes biosynthesis with glycolytic metabolites and tumor cell cycle progression” (The Journal of Biological Chemistry, 2022):

What was measured:
His-PKM2 = molecular target: T1, His-PKM2 (human, UniProt P14618 1-531); assay: pull-down; GST-tagged protein on resin incubated with purified His-PKM2 for 2 h at 4 °C, eluted with 10 mM GSH in 50 mM Tris pH 8.0, immunoblot; conditions: both partners purified
T1 construct: full-length PKM2 cloned into the EcoRI/BamHI sites of pET-22b; also called His-tagged PKM2; His-PKM2 WT; source: E. coli, purified (nickel column)
T1 sequence (P14618 whole entry): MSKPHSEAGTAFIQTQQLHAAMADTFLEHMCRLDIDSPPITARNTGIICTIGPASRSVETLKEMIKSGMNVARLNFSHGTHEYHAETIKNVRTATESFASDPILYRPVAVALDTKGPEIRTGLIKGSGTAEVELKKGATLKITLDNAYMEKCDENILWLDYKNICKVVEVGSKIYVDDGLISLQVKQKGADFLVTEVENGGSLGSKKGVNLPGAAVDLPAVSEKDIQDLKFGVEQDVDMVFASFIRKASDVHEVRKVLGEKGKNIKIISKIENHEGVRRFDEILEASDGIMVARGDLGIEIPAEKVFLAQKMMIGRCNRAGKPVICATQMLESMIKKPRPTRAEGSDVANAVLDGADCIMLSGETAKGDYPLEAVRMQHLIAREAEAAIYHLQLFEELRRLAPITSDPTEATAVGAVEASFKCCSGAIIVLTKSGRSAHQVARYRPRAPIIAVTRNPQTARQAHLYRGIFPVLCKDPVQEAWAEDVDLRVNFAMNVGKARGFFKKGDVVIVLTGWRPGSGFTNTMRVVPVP

[1] = molecular target: the molecule itself; assay: cross-linking; Flag-PKM2 purified on Flag beads from H1299 extracts, DSS crosslinking (1.5 mM, room temperature, 30 min), immunoblot
[2] = molecular target: the molecule itself; assay: SEC-MALS; 1 mg/ml protein in 150 mM NaCl, 20 mM Tris pH 7.5; Superdex 200 Increase, 0.3 ml/min; tetramer and monomer

B1: GST-Aurora A (natural protein, human, UniProt O14965 1-403, looked up)
chain: MDRSKENCISGPVKATAPVGGPKRVLVTQQFPCQNPLPVNSGQAQRVLCPSNSSQRIPLQAQKLVSSHKPVQNQKQKQLQATSVPHPVSRPLNNTQKSKQPLPSAPENNPEEELASKQKNEESKKRQWALEDFEIGRPLGKGKFGNVYLAREKQSKFILALKVLFKAQLEKAGVEHQLRREVEIQSHLRHPNILRLYGYFHDATRVYLILEYAPLGTVYRELQKLSKFDEQRTATYITELANALSYCHSKRVIHRDIKPENLLLGSAGELKIADFGWSVHAPSSRRTTLCGTLDYLPPEMIEGRMHDEKVDLWSLGVLCYEFLVGKPPFEANTYQETYKRISRVEFTFPDFVTEGARDLISRLLKHNPSQRPMLREVLEHPWITANSSKPSNCQNKESASKQS
notes: full-length Aurora A cloned into the BamH/XhoI sites of p-GEX-5X-3
His-PKM2
  binding result: binds

B2: shRNA-resistant Flag-PKM2 T45A (natural protein)
chain: not shown
notes: Flag-tagged human PKM2 T45A with two silent nucleotide substitutions in the shRNA-targeted region, in the pGIPZ system; Monomer and tetramer are both spoken of; 4 copies is the tetramer seen by cross-linking; also called PKM2 T45A mutant; source: H1299 with endogenous PKM2 knocked down, retroviral expression, purified on Flag beads
[1]
  stoichiometry N: 4

B3: His-PKM2 T45A mutant (natural protein)
chain: not shown
notes: Monomer and tetramer are both spoken of; source: E. coli, purified
[2]
  stoichiometry N: 4
